One assay relates to HUVECs. The experiment in a line: Trans-endothelial electrical resistance (TEER). The format is cell-based, human. The settings on record: 4 μg/well, 250 nM S1P, 6 hour time point. How it is done:
FIG. 4. Human and Mouse ApoM-Fc-S1P enhanced endothelial Barrier Protection. Human ApoMFc-S1P (4 μg/well, 250 nM S1P), Mouse ApoMFc-S1P (4 μg/well, 250 nM S1P), or BSA-S1P (250 nM S1P; Positive Control) were analyzed using transepithelial/transendothelial electrical resistance (TEER). The results of TEER analysis of HUVECs at the 6 hour time point are shown. BSA-S1P is the well-established activator of the S1PR1 and it was tested whether Human ApoMFc-S1P, Mouse ApoMFc-S1P gave equivalent induction of receptor activation. All results are normalized to individual well baselines (baseline=1), expressed as the mean of triplicate wells, and Standard Deviation (S.D.) is expressed as gray vertical bars over the course of the data set. […]
0.1 ml of Human Umbilical Vascular Endothelial Cells (HUVECS; 200,000 cells/ml in EGM-2 culture medium, Lonza) were seeded into a 96 well electrical conductance chamber (ECIS Cultureware; Applied Biophysics, Inc) pre-coated with 1% Fibronectin resuspended in Saline. After overnight incubation at 37° C./5% CO2, the 96-well plate was placed on the ECIS reader (Applied Biophysics; Ztheta 96-well array station) and baseline resistance was established which represents the quality of Endothelial junction strength or Endothelial barrier function. […]

Assay [1] has as its target T1, S1P1 receptor (Homo sapiens, UniProt P21453).
T1 construct: expressed in transfected cells; host or cells: Human 293A cells, transient PEI transfection
Kind of assay: Nanobit split luciferase assay, Gi-alpha coupling. It is filed as cell-based. The settings on record: transfected 293A cells; 1000 nM-0.3 nM S1P. Here is the method: (§1) FIGS. 5A-5B. Nanobit analysis of Human ApoMFc-S1P, Mouse ApoMFc-S1P, or BSA-S1P (Positive Control). […] BSA-S1P is the well-established activator of the S1PR1 and it was tested whether Human ApoMFc-S1P, Mouse ApoMFc-S1P gave equivalent induction of receptor activation. Data are the means of triplicate wells with the baseline (pre-stimulation) signal subtracted from the final luciferase signal and graphs are expressed with standard deviation.
(§2) The S1P receptors are members of the G-protein coupled receptor (GPCR) superfamily. Receptor activation is characterized by immediate activation of a G-protein complex (alpha-beta-gamma) that activates multiple intracellular signaling pathways and then secondary activation of coupling to the protein beta-arrestin, which may cause receptor internalization and desensitization as well as activation of other intracellular signaling pathways. […]
(§3) There are two general forms of this assay. […] Upon activation of the GPCR, the G-Protein alpha-beta-gamma complex […] and Luciferase activity may be detected by measuring emitted light in the presence of luciferase substrate (luciferin). […] It is notable that G-Protein assay results in decreased relative fluorescence with increased receptor activation, while the Beta-arrestin coupling assay results in increased relative fluorescence with increased receptor activation. […]
Target sequence in this assay (P21453 whole entry): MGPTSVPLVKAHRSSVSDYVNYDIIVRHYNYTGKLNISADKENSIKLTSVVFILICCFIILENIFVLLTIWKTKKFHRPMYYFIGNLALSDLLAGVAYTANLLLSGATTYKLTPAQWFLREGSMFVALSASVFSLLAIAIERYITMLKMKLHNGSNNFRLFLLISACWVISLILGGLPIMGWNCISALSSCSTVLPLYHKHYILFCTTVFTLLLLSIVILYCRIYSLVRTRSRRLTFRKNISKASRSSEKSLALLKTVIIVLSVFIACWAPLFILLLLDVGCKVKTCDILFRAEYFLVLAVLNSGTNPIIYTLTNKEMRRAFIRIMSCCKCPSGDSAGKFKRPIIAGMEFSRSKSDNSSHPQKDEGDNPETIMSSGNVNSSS

The target of assay [2] is T1, S1P1 receptor. Kind of assay: Nanobit split luciferase assay, beta-arrestin coupling. It is filed as cell-based. The settings on record: transfected 293A cells; 1000 nM-0.3 nM S1P. Here is the method:
as §1, §2, §3
Target sequence in this assay (P21453 whole entry): as above
Target sequence in this assay (P49407 whole entry partner): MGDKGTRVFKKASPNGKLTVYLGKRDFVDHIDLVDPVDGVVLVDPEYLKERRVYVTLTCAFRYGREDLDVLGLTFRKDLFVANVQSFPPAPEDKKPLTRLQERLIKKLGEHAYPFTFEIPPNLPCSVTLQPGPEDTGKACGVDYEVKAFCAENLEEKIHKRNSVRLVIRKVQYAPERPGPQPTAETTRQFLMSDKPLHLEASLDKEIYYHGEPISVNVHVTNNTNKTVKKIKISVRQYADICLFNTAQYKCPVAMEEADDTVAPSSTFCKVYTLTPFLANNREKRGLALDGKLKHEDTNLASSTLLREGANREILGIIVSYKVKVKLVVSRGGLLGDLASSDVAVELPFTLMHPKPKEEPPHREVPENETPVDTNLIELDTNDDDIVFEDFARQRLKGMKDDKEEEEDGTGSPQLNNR

In the case of “Human ApoMFc-S1P: Human ApoM-Human IgG1 Fc (hApoM-Fc) loaded with S1P”, in the assay on HUVECs, the “endothelial barrier protection (TEER)” value was “enhance endothelial Barrier Protection”. Moreover, the “activation of Gi-alpha coupling to the S1P1 receptor” value with S1P1 receptor [1] is “equivalently activates”. For the same substance, in the assay with S1P1 receptor [2], the “activation of beta-arrestin coupling to the S1P1 receptor” value was “equivalently activates”.

Source of the values: patent publication US12415847B2, “ApoM-Fc fusion proteins for treating lung diseases” (Children's Medical Center Corporation, priority 2018, dated 2025).
